This note sets out measurements from PMC2951370, “Concerted Action of Two Formins in Gliding Motility and Host Cell Invasion by Toxoplasma gondii” (PLoS Pathogens, 2010).

Data set [1] deals with DD-myc-F2-R/A (Toxoplasma gondii). The data set is described as follows: co-IP; two sequential anti-myc immunoprecipitations (48 hrs Shld-1); IPs and flow throughs blotted, bands quantified with ImageJ and normalised to the input.
For data set [2], the target named is DD-myc-F1-IR/AA (Toxoplasma gondii). The data set is described as above.
Data set [3] concerns the molecule itself. The data set can be described thus: SEC; purified FH2 domains on Superose 6 10/300 GL, 0.4 ml/min, PBS-NaCl 0.15 M buffer, to determine their oligomeric state.

In turn, “Toxoplasma gondii Formin 2 (TgFRM2), endogenous (natural protein)” gave a percent of the input formin left in the second flow through after two anti-myc IPs (not co-precipitated) in data set [1] of 17%.

As for “Toxoplasma gondii Formin 1 (TgFRM1), endogenous (natural protein)”, the percent of the input formin left in the second flow through after two anti-myc IPs (not co-precipitated) in data set [2] amounted to 30%.

B1: His-F1L (FH2 domain of TgFRM1 with an N-terminal 48 amino acid proline-rich extension) (domain or fragment)
chain: KKPEAPKKEEAKPKPEAKKEAPKKGPPGGKGGKGPPGKGPPKGKGKGPKKKGEGGLKVGKKDEGKTKRFFWDPIFEDEIPGTIFMKKPNMVLKLQDVEETFAKVVAKKKTESKKPKIIQLLPDSKRAYNMSIALSKFNNYSYQQLREAIIDLDPKILTIEATETLLNFVPTGEENQVVKEYINSGGDLKLVDKPEQFVAAMLGVPLMKQRLEAHAFALNFREAYSDAYTPLENMADACDAIDDSQNLKIVLFAILELGNALNEGDPQRGGAAGFKPTTLAKLQEIRTTTKPVRTMLQYICDIIWEQQPTALNIYEDLKICDKAQRVDMQGIEGRISNLKAGLTKVKNTLEAAKKGNESTGVMGDRDPLRNIMDEFLIEAEPKIKQLDDFLVQVQNQFLQTCHYSGYPDKDVKKIKPDELFKQVAGFARQVDAIRKQKQEIADRELKRKEAEAKRAGKGLKSTAVKKVGMK
notes: source: E. coli, purified (Ni-NTA under native conditions)
As to B1, the “stoichiometry N” value in data set [3] worked out at 2.

B2: His-F2 (FH2 domain of TgFRM2) (domain or fragment, Toxoplasma gondii, UniProt D0V3Y1 3317-4043, looked up)
chain: TGSYPGASDKSQQTFSAGAPSSGTNARTESTPAGAGETGASGEAKAPAAPKKKAMPPPPPPGKTPGDASKAPGGPPGKGKAPPLPKGKKAPQLGKAPKAGGPPKKADAVDPMTLPLRRKIHWKTLGKEQIEGTVFKELEGDPAIPDMFDPEAISRLFSATLTVKSDEAAVKAAPKKAEEKKHTILDNKRAQNVAIVLARLPLSLDAIAQKMLHLDTEGLTVDILQKVEQVAPTPEELVKFREYEELKKTENTGDLRDVEKKMTALIPVTRLSSRVRVMQTALQWEKVVEEIEKQLALLCKAADEAHNSRKFRSLLQAVLQWGNYVNHGVKKAPKGQEVSSESEARKAETTSPTEGDRRENRQTLQQLPPILLVKELPTKGFKLASLEKLMEFRTTVDKSICSLHFIISNLIVSLPELDILDLASDMPSLEAAARLSDESIDAPVSYLRNEAAFLLSQIHAIKQVLAAKDATATDPSGAPRPSGSKPQTDEALHAELTRLQKLHGEMVLTLERLRESYLNCKAVIGEVGRFYGEDGPKKPSAGKHKLKGQAVSVDAGGSATAGGVIAEWEFGLLDQSPFELLFSILSTCRQGLRDVQANPRKYAILLVGRFASEEEKWKLLKFHIDNSLANRKRVTGCRGSDAEQVAGRPQDADKAGSSVVSSPRTTPRGSIASRGGKKLIVGRHGPEAGGTPQIPRGPPKSDNGSFTETQRLGRGLSEGSEDALSSP
notes: also called F2-WT; His-GST-F2; source: E. coli, purified (Ni-NTA under native conditions)
In the case of B2, in data set [3], the “stoichiometry N” value turned out to be 2.
